Article PMC5871787

Tests used:
[1] = target: sGFPori (sGFP 1–10 OPT), recombinant; assay: SEC; size-exclusion HPLC of purified, non-complemented sFPs at high concentration; sGFP2 (ReAsH-labelled) at 20 µM, concentrations of the other sFPs not stated
[2] = target: sGFPori (sGFP 1–10 OPT), recombinant; assay: fluorescence polarisation; steady-state fluorescence anisotropy of ReAsH-labelled sFP at 20, 10, 5, 2.5, 1.25 and 0.5 µM, after equilibrium at RT, triplicate; apparent equilibrium constant of dimer formation (monomers to dimer)
[3] = target: M3 peptide (complementary 11th β-strand peptide of split GFP); assay: other fluorescence titration; fluorescence complementation kinetics, pseudo-first order: 0.1 µM M3 peptide with 0.1–30 µM total sFP, TN buffer pH 8.0 with 1 mM DTT, 5 mM EDTA, 0.05% CHAPS, 25 °C, 14 hours; kobs1 against the concentration of sFP monomers fitted by a line; binding irreversible

sGFPori (sGFP 1–10 OPT), recombinant (domain or fragment)
stoichiometry N [1]: 2
Ka [2]: 320000 M⁻¹
kon [3]: 70 M⁻¹ s⁻¹
